Reference: patent EP4471049A1 (Zealand Pharma A/S, priority 2023, dated 2024)
Like-named read-outs stand apart in the source and are kept apart here. Values belong to the binder of their own block, whether it stands above or below them. *1 amine or outer side, *2 acyl side, *3 side chain or, on linkers, in order; H or OH if unused. Bridges are numbered along the chain shown (N, C = ends). [ ]: non-standard residue; d: D form. The star is where a group is joined. 4‑Aminomethyl‑phenylacetyl = 4-aminomethyl-phenylacetyl unit, its amine closes the lactam, O=C(Cc1ccc(CN[*:1])cc1)[*:2]; NH(2-(3-pyridyl)ethyl) = c1cncc(CCN*)c1; 2Nal = N[C@@H](Cc1ccc2ccccc2c1)C(=O)O; AEF = NCCOc1ccc(C[C@H](N)C(=O)O)cc1; 3Pal = N[C@@H](Cc1cccnc1)C(=O)O; αMeL = CC(C)C[C@](C)(N)C(=O)O; Dab = NCC[C@H](N)C(=O)O

Assays:
[1] = molecular target: T1, Nluc-IL23R fusion protein (human, UniProt Q5VWK5 22-629); assay: BRET competition vs TAMRA-labelled peptide, Nluc-IL23R membranes
T1 construct: range 22-629; expressed with a secretion signal in HEK293 cells; used as crude membrane preparation; also called hIL-23R; human IL-23R; not shown: Nanoluc protein from the expression plasmid N1371 (Promega), N-terminal of IL-23R
T1 sequence (looked up): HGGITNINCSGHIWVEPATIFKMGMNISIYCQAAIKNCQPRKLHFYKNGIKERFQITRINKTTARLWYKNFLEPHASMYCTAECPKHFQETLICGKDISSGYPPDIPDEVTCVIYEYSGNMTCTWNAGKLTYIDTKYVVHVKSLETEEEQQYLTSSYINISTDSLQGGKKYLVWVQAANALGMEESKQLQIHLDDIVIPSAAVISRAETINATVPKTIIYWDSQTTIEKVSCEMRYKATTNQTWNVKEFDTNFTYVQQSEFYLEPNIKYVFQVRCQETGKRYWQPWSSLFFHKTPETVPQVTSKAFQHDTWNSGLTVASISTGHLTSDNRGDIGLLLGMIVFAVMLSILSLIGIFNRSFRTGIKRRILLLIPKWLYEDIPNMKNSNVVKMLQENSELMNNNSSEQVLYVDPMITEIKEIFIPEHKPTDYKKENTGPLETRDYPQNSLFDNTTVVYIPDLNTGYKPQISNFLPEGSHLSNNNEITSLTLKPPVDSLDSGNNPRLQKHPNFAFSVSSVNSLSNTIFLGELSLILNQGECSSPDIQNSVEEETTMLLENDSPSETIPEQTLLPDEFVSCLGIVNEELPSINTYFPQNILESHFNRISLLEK

[2] = molecular target: T2, human IL-23R endogenously expressed on DB cells (human, UniProt Q5VWK5 24-629); assay: cell-based or functional assay
T2 sequence (looked up): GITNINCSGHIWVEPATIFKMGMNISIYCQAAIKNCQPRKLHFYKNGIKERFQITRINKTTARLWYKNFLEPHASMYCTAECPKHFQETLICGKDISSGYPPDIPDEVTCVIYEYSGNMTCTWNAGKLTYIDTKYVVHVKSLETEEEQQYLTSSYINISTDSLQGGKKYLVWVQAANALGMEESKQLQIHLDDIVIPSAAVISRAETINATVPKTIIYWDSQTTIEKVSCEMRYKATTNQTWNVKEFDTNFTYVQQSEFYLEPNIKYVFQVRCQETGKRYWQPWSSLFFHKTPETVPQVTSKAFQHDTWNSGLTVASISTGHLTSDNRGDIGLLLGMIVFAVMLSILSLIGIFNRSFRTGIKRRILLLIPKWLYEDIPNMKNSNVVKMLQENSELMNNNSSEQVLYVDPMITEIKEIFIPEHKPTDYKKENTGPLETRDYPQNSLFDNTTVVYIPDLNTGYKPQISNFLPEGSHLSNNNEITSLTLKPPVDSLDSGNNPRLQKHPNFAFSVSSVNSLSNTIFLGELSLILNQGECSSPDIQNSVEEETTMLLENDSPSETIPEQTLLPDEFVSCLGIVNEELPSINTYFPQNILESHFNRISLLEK

[3] = molecular target: T2, human IL-23R endogenously expressed on …; assay: cell-based or functional assay; remark: listed apart in the source
[4] = molecular target: T2, human IL-23R endogenously expressed on …; assay: cell-based or functional assay; remark: listed apart in the source
[5] = molecular target: T2, human IL-23R endogenously expressed on …; assay: cell-based or functional assay; remark: listed apart in the source
[6] = molecular target: T2, human IL-23R endogenously expressed on …; assay: cell-based or functional assay; remark: listed apart in the source
[7] = molecular target: T1, Nluc-IL23R fusion protein; assay: BRET competition vs TAMRA-labelled peptide, Nluc-IL23R membranes; remark: listed apart in the source

% displacement (hIL-23R binding) [1]: 97% | IC50 (pSTAT3) [2]: 28 pM | IC50 (pSTAT3) [3]: 28 pM | IC50 (pSTAT3) [4]: 28 pM | hIL-23 (pSTAT3) antagonist % inhibition [5]: 99% | hIL-23 (pSTAT3) antagonist IC50 [5]: 28 pM | IC50 (pSTAT3) [6]: 28 pM
B1: Ref 122 (peptide)
peptide: [4‑Aminomethyl‑phenylacetyl]SEWQ[Dab][AEF][2Nal][αMeL]E[Dab][3Pal]-NH2
modifications: lactam N-10, 3-6
SMILES: CC(C)C[C@]1(C)NC(=O)[C@H](Cc2ccc3ccccc3c2)NC(=O)[C@H](Cc2ccc(OCCN)cc2)NC(=O)[C@@H]2CCNC(=O)CC[C@H](NC(=O)[C@H](CO)NC(=O)Cc3ccc(cc3)CNC(=O)CC[C@@H](C(=O)N[C@@H](CCN)C(=O)N[C@@H](Cc3cccnc3)C(N)=O)NC1=O)C(=O)N[C@@H](Cc1c[nH]c3ccccc13)C(=O)N[C@@H](CCC(N)=O)C(=O)N2

IC50 (pSTAT3) [2]: 0.13 nM | hIL-23 (pSTAT3) antagonist % inhibition [5]: 98% | hIL-23 (pSTAT3) antagonist IC50 [5]: 0.13 nM | % displacement (hIL-23R binding) [7]: 102%
B2: Compound 7 (peptide)
peptide: [4‑Aminomethyl‑phenylacetyl]SEWQ[Dab][AEF][2Nal][αMeL]E[Dab]-{NH(2-(3-pyridyl)ethyl)}
modifications: lactam N-10, 3-6
SMILES: CC(C)C[C@]1(C)NC(=O)[C@H](Cc2ccc3ccccc3c2)NC(=O)[C@H](Cc2ccc(OCCN)cc2)NC(=O)[C@@H]2CCNC(=O)CC[C@H](NC(=O)[C@H](CO)NC(=O)Cc3ccc(cc3)CNC(=O)CC[C@@H](C(=O)N[C@@H](CCN)C(=O)NCCc3cccnc3)NC1=O)C(=O)N[C@@H](Cc1c[nH]c3ccccc13)C(=O)N[C@@H](CCC(N)=O)C(=O)N2
